{"source": "patent US20240316101", "key": {"[1]": {"test_system": "PEG12-Tregitope peptide (Peg12-Val-Cit-Tregitope-Nle)"}, "[2]": {"test_system": "PEG2-Tregitope peptide (KKKK-Peg2-Val-Cit-Tregitope-Nle)"}}}
{"substance": "Recombinant human Cathepsin B (catalog 953-CY of R&D Systems)", "values": [{"measurement": "cleavage of the Val-Cit site, evaluated by mass spec", "setting": "[1]", "value": "For the PEG12 product, successful cleavage was demonstrated"}, {"measurement": "cleavage of the Val-Cit site, evaluated by mass spec", "setting": "[2]", "value": "the PEG2 peptide did not have successful cleavage"}]}
